In series [1] the target is Tal-N (TP901-1 ORF47 N-terminal region, residues 1-386) (Lactococcus phage TP901-1). In words: native MS.
For series [2] the target is unchanged. Nature of the series: denaturing ESI-MS.
Series [3] concerns the target phage TP901-1 ORF46 (Dit) (Lactococcus phage TP901-1). In words: SEC-MALS.
For series [4] the target is unchanged. In words: native MS.
For series [5] the target is unchanged. Nature of the series: native MS. The source holds these as a separate data set.
The target is the same in series [6]. Nature of the series: denaturing ESI-MS.
For series [7], the target named is phage TP901-1 ORF48 (BppU), as in the Tripod sample (Lactococcus phage TP901-1). Nature of the series: native MS.
Series [8] concerns the target phage TP901-1 ORF48 (BppU), as in the samples TP1 and Dit-BppU (Lactococcus phage TP901-1). Nature of the series: native MS.
The target is the same in series [9]. In words: native MS. This is another data set of the same source.
The target in series [10] is phage TP901-1 ORF49 (BppL), as in the Tripod sample (Lactococcus phage TP901-1). In words: native MS.
Series [11] deals with phage TP901-1 ORF49 (BppL, the RBP), as in the sample TP1 (Lactococcus phage TP901-1). Nature of the series: native MS.
Series [12] has as its target phage p2 ORF15 (as in the sample SBP1) (Lactococcus phage p2) (UniProt D3WAD3). Nature of the series: native MS.
Series [13] has as its target phage p2 ORF16 (Lactococcus phage p2). Nature of the series: native MS.
Series [14] has the same target. In words: native MS. The source holds these as a separate data set.
The target of series [15] is phage p2 baseplate subcomplex SBP1 [6xORF15 + 3xORF16] (Lactococcus phage p2) (UniProt D3WAD3). In words: native MS.
The target of series [16] is T1, phage p2 baseplate [6xORF15 + 3xORF16 + 18xORF18] (Lactococcus phage p2).
T1 chain 1: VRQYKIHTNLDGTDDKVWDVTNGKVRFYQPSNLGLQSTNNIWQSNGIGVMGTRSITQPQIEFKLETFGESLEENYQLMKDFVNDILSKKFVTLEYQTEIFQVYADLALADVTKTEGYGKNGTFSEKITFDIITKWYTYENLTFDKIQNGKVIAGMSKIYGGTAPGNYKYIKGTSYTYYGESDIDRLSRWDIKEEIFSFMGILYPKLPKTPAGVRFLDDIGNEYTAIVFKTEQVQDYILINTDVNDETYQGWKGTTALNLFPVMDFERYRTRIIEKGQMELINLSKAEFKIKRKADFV
T1 chain 2: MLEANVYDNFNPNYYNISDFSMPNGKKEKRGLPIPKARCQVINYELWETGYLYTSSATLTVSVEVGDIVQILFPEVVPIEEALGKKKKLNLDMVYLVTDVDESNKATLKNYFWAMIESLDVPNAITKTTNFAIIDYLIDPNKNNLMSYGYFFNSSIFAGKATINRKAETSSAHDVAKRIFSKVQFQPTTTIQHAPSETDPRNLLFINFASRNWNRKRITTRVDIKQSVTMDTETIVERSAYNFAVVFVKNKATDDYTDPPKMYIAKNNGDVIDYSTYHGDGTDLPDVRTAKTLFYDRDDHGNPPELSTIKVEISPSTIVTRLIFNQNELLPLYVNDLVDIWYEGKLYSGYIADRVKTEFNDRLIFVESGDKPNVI
T1 chain 3: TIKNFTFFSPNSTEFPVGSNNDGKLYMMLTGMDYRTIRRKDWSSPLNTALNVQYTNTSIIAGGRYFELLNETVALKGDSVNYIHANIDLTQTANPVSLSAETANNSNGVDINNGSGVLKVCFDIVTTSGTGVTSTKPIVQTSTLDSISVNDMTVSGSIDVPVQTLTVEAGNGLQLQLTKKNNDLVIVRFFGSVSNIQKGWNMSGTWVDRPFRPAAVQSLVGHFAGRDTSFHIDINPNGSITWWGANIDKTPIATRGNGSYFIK
Nature of the series: native MS.

Series [17] concerns the molecule itself. Nature of the series: denaturing ESI-MS.
Series [18] deals with the molecule itself. In words: native MS.
Series [19] concerns the molecule itself. In words: native MS. The source holds these as a separate data set.
Series [20] concerns the molecule itself. In words: native MS. This is another data set of the same source.

Where “and” joins values, the source holds several entries; their conditions need not be identical. Equal entries are not always repeated. Where two headings read alike, the source gives them in different places.

For “Tal-N (TP901-1 ORF47 N-terminal region, residues 1-386) (domain or fragment)”, the stoichiometry N (in general, a count of units in the complex or per binding partner) was 2 and 3 in series [1]; 2 and 3 in series [2].

Consider “phage TP901-1 ORF46 (Dit) (natural protein)”, for which the stoichiometry N was 12 in series [3]; 6 and 12 in [4]; 6 in [5]; 2 and 3 and 6 in [6].

“phage TP901-1 ORF48 (BppU), as in the Tripod sample (natural protein)” registered a stoichiometry N in series [7] of 3.

In the case of “phage TP901-1 ORF48 (BppU), as in the samples TP1 and Dit-BppU (natural protein)”, the stoichiometry N in [8] and in series [9] was 3 throughout.

In turn, “phage TP901-1 ORF49 (BppL), as in the Tripod sample (natural protein)” showed a stoichiometry N in series [10] of 3.

Turning to “phage TP901-1 ORF49 (BppL, the RBP), as in the sample TP1 (natural protein)”, the stoichiometry N in series [11] was 3 and 6.

In series [12], “phage p2 ORF15 (as in the sample SBP1) (from UniProt D3WAD3 2-298) (natural protein)” had a stoichiometry N of 6.

For phage p2 ORF16 (natural protein), the stoichiometry N is 3 in [13]; 2 and 3 in [14].

As to “phage p2 baseplate subcomplex SBP1 [6xORF15 + 3xORF16] (from UniProt D3WAD3 2-298)”, the stoichiometry N in series [15] came to 2.

B1: VHH5 neutralizing llama antibody fragment (VHH)
VHH: QVQLQESGGGLVQAGGSLRLSCTASRRTGSNWCMGWFRQLAGKEPELVVALNFDYDMTYYADSVKGRFTVSRDSGKNTVYLQMNSLKPEDTAIYYCAARSGGFSSNRELYDGWGQGTQVTVSS
For the molecule B1, the “stoichiometry N” value in series [16] came out at 18.

B2: phage p2 ORF18 (receptor-binding protein) (natural protein, Lactococcus phage p2)
chain: T1 chain 3
Regarding B2, the “stoichiometry N” value in [17] was 2; in series [18] it was 3; in series [19] it was 3.

B3: phage p2 ORF15 (as in the samples BP1, BP2 and SBP2) (natural protein, Lactococcus phage p2)
chain: T1 chain 1
Turning to B3, in series [20], the “stoichiometry N” value was found to be 6.

(Values after publication PMC3186816 (Molecular & Cellular Proteomics : MCP, 2011).)
